Results taken from IntAct's records for PubMed 32296183.

Assays:
bik_human BIK = bik_human BIK (UniProt Q13323)
cgrf1_human CGRRF1 = molecular target: T1, cgrf1_human CGRRF1 (UniProt Q99675)
T1 sequence: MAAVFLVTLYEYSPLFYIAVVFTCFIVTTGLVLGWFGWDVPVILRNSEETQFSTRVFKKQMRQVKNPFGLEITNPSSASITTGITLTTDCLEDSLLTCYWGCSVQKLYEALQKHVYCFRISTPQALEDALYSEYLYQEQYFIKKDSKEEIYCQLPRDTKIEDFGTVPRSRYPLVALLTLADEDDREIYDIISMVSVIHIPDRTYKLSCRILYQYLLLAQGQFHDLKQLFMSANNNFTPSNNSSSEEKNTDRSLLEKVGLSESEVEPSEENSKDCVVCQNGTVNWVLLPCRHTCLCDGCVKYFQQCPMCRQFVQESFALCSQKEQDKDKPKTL

crtp1_human CYSRT1 = molecular target: T2, crtp1_human CYSRT1 (UniProt A8MQ03)
T2 sequence: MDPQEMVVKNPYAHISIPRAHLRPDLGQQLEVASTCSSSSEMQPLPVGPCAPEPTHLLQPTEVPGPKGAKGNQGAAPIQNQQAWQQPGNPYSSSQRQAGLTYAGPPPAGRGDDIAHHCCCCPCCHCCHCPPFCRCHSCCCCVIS

gp152_human GPR152 = gp152_human GPR152 (UniProt Q8TDT2)
gpx8_human GPX8 = molecular target: T3, gpx8_human GPX8 (UniProt Q8TED1)
T3 sequence: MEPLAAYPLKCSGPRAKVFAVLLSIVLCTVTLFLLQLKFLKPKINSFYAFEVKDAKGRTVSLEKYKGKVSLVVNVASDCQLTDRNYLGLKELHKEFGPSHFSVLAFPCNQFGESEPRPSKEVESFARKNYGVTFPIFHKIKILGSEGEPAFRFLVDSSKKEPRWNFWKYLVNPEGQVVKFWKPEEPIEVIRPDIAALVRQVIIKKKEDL

amgo1_human AMIGO1 = molecular target: T4, amgo1_human AMIGO1 (UniProt Q86WK6)
T4 sequence: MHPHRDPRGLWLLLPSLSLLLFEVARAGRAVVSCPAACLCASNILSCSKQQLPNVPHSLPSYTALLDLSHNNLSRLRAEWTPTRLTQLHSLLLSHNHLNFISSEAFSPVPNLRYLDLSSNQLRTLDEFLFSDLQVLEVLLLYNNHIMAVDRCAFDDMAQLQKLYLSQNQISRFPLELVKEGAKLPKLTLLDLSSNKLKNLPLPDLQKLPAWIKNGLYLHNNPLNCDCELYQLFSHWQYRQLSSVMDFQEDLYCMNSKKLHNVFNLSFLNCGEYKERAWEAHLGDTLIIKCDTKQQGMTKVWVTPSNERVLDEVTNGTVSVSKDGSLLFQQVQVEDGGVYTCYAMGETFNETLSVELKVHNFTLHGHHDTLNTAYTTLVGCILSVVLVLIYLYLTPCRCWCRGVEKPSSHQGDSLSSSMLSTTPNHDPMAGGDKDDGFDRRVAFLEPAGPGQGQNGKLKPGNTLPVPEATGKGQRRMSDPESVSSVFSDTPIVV

lrc4c_human LRRC4C = molecular target: T5, lrc4c_human LRRC4C (UniProt Q9HCJ2)
T5 sequence: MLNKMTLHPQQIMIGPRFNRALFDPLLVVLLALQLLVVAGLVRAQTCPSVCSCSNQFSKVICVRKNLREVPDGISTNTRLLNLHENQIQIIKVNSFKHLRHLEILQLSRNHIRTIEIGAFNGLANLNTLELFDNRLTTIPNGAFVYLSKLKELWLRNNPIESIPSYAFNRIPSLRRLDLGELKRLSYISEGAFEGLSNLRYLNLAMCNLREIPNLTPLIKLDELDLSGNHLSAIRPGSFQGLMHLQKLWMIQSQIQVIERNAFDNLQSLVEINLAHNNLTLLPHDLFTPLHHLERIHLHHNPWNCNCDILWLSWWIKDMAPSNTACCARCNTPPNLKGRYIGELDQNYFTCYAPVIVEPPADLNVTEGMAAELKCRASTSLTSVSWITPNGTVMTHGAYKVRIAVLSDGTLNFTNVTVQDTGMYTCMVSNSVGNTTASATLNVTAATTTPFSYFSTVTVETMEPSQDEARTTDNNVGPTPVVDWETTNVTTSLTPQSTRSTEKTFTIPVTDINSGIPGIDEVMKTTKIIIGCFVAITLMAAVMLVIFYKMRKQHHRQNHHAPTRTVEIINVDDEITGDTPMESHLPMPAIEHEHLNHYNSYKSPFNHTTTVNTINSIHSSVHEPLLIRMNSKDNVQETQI

ar13b_human ARL13B = ar13b_human ARL13B (UniProt Q3SXY8)
FAM209A = molecular target: T6, FAM209A (UniProt Q5JX71)
T6 sequence: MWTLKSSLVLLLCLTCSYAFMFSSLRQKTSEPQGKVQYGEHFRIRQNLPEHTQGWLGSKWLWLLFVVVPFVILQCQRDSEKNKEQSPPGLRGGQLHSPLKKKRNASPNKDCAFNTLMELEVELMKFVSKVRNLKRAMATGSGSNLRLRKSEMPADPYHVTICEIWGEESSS

cplx4_human CPLX4 = molecular target: T7, cplx4_human CPLX4 (UniProt Q7Z7G2)
T7 sequence: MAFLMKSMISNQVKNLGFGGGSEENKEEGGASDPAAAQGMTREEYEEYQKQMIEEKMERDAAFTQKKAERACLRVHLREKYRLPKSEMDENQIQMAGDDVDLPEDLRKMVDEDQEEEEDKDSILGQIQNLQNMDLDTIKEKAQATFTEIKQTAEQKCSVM

ergi3_human ERGIC3 = ergi3_human ERGIC3 (UniProt Q9Y282)
cisd2_human CISD2 = molecular target: T8, cisd2_human CISD2 (UniProt Q8N5K1)
T8 sequence: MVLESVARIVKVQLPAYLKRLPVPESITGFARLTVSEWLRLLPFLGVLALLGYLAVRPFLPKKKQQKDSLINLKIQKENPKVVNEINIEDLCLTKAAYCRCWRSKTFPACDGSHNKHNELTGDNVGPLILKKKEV

tm52b_human TMEM52B = tm52b_human TMEM52B (UniProt Q4KMG9)
cxa8_human GJA8 = cxa8_human GJA8 (UniProt P48165)
cxa8_human GJA8, sequence (P48165 whole entry): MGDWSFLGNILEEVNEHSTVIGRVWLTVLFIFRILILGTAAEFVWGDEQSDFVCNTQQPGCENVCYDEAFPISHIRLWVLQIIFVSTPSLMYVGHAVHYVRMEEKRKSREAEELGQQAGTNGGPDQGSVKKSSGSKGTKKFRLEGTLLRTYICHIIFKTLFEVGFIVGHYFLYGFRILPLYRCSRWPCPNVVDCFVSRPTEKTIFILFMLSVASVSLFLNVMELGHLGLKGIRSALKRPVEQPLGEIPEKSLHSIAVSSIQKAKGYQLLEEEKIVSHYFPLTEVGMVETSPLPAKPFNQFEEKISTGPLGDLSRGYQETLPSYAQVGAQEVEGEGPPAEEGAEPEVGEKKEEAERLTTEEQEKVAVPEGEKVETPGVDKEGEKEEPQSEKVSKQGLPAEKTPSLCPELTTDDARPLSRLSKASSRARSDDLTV

bik_human BIK, sequence (Q13323 whole entry): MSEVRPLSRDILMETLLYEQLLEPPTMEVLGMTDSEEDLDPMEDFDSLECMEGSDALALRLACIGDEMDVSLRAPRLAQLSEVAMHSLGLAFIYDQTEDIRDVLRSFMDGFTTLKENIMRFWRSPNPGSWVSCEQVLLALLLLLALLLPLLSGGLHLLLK
tm52b_human TMEM52B, sequence (Q4KMG9 whole entry): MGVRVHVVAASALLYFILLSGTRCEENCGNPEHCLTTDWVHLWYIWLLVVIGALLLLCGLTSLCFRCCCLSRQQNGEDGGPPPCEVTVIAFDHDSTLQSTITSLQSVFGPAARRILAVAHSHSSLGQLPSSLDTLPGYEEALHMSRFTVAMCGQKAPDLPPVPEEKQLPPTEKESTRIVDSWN
ergi3_human ERGIC3, sequence (Q9Y282 whole entry): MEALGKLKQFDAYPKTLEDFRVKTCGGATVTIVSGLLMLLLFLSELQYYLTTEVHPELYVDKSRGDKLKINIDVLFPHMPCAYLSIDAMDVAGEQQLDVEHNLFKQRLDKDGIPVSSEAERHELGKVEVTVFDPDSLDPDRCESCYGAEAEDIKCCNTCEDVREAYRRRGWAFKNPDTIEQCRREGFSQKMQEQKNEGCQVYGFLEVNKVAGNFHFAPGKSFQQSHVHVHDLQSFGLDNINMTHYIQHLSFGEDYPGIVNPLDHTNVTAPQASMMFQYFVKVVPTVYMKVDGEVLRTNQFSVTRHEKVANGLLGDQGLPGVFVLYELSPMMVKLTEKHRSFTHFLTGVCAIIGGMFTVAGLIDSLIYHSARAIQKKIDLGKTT
gp152_human GPR152, sequence (Q8TDT2 whole entry): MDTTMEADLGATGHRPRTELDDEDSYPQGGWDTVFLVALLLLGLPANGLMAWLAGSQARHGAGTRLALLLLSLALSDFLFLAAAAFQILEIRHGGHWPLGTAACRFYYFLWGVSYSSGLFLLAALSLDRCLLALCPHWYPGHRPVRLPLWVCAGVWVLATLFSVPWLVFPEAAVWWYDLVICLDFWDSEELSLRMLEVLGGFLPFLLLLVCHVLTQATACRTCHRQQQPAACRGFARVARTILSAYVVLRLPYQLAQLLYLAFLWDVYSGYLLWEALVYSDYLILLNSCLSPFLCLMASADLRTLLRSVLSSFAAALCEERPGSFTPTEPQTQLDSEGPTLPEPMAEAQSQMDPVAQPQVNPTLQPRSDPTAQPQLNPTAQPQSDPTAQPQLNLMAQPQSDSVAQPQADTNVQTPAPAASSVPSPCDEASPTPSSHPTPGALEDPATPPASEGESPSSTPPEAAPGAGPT
ar13b_human ARL13B, sequence (Q3SXY8 whole entry): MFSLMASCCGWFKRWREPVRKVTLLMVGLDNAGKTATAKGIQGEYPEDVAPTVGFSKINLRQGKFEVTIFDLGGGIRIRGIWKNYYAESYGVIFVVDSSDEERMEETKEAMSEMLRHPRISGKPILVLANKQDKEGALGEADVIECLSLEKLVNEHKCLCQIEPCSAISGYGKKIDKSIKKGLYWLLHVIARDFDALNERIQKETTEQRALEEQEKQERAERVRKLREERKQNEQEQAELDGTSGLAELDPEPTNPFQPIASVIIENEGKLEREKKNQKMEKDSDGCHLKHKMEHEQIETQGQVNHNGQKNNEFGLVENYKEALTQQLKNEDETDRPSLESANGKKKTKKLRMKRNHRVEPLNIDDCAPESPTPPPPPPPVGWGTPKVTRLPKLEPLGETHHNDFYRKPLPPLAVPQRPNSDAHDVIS

effect of a mutation on the interaction (bik_human BIK): with no effect
effect of a mutation on the interaction (cgrf1_human CGRRF1): with no effect
effect of a mutation on the interaction (crtp1_human CYSRT1): disrupting interaction strength
effect of a mutation on the interaction (gp152_human GPR152): with no effect
effect of a mutation on the interaction (gpx8_human GPX8): with no effect
effect of a mutation on the interaction (amgo1_human AMIGO1): disrupting interaction strength
effect of a mutation on the interaction (lrc4c_human LRRC4C): with no effect
effect of a mutation on the interaction (ar13b_human ARL13B): with no effect
effect of a mutation on the interaction (FAM209A): with no effect
effect of a mutation on the interaction (cplx4_human CPLX4): with no effect
effect of a mutation on the interaction (ergi3_human ERGIC3): with no effect
effect of a mutation on the interaction (cisd2_human CISD2): with no effect
effect of a mutation on the interaction (tm52b_human TMEM52B): disrupting interaction strength
effect of a mutation on the interaction (cxa8_human GJA8): with no effect
Substance: Acyltransferase PGAP2 (Homo sapiens) (from UniProt Q9UHJ9-5) T160I
